These results are taken from US20190111148A1 (MONASH UNIVERSITY, published 2019).

Test [1] concerns the target T1, human IL-21 (human, UniProt Q9HBE4 25-162, limits assumed).
T1 construct: also called hIL-21; full length hIL-21
Put plainly: SPR (ProtOn XPR36), biotinylated hIL21 immobilised on NLC chip, antibody in flow, triplicates. On the procedure: Triplicates SPR measurements were conducted on ProtOn XPR36 (Bio-rad). NLC chips (Bio-rad) were used to immobilise biotinylated hIL21 on ligand channels, followed by flowing through of various concentrations of mouse 2P2 or humanised 2P2.

Test [2] concerns the target mIL21 (mouse, UniProt Q9ES17). Put plainly: ELISA: coated mIL21, biotinylated 2P2, Streptavidin-HRP/TMB, A450.
Test [3] has as its target T1, human IL-21. Put plainly: cell-based or functional assay.
Test [4] concerns the target T2, Peptide 3 of hIL-21 (human).
T2 construct: also called P3
T2 peptide: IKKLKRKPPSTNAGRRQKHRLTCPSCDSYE
Put plainly: ELISA: coated Peptide 3, biotinylated 2P2, Streptavidin-HRP/TMB, A450. The procedure: (§1) To detect epitopes of 2P2 and 3A3, peptides consisting of different regions of hIL-21 were synthesized commercially and coated on an ELISA plate, followed by blocking of non-specific binding sites with 3% BSA in PBS. Biotinylated 2P2 or 3A3 were then added to the wells and developed with Streptavidin-HRP and TMB substrates.

Test [5] concerns the target T1, human IL-21. Put plainly: SPR, immobilised mAb, IL-21 in flow; average of the five wells of Table 6 (unit from Table 6); average with range and SD of the five measurements. The procedure:
Surface Plasma Resonance binding kinetics assay were performed on a Bio-rad XPR36 system by the direct amine coupling method. Briefly, a flow of mixture of EDC [N-ethyl-N′-(3-diethylamino-propyl) carbodiimide] and NHS (N-hydroxysuccinimide) was used to activate the cell surface of a GLC sensor chip before 25 μg/ml anti-IL-21 mAb was flowed through, then a shot flow of ethanolamine was used to block the remaining active sites on the cell surface. Afterwards, serial diluted solutions of IL-21 from 0 to 40 nM were flown over the cell surface to bind to the immobilized anti-IL-21 mAb molecules. Binding kinetics were performed at 25° C. with a flow rate of 30 μL/min, association time of 3 min and dissociation time of 6 min. The buffer consisted of Hepes, NaCl, tween20, and 1 mg/mL BSA at pH 7.4. The flow cell regeneration buffer between cycles was 15 mM phosphoric acid. Double references were used to process the sensorgrams. The binding curves were globally fit to the 1:1 Langmuir binding model.

The target in test [6] is T3, Peptide 1 (P1, 30aa).
T3 construct: also called peptide 1 of hIL-21
Put plainly: peptide ELISA: coated peptide, biotinylated 2P2, Streptavidin-HRP/TMB, A450. On the procedure:
as §1
In general terms: In an ELISA, binding on a coated surface is turned into a signal by an enzyme label.

For test [7], the target named is T4, Peptide 2 (P2).
T4 construct: also called peptide 2 of hIL-21; Peptide 2 (P2, 27aa)
The test is described as above. On the procedure:
as §1

Test [8] deals with T5, Peptide 4 of hIL-21 (human).
T5 construct: also called P4
T5 peptide: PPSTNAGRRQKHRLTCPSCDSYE
Put plainly: ELISA, biotinylated 2P2 on coated peptide. The procedure: as §1

For test [9], the target named is T6, Peptide 5 of hIL-21 (human).
T6 construct: also called P5
T6 peptide: PPSTNAGRRQKHRLT
Put plainly: ELISA, biotinylated 2P2 on coated peptide. On the procedure: as §1

Where only a bound is given, the exact number is not on record here.

T1 sequence (Q9HBE4 25-162 limits assumed): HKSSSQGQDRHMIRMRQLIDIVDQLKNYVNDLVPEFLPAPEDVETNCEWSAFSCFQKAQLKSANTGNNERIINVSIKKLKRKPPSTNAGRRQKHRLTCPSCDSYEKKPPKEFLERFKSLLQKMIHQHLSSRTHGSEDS
T3 sequence (peptide, as listed by the source): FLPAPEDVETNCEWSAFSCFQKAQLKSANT
T4 sequence (peptide, as listed by the source): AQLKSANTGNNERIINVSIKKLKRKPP

B1: humanized 2P2 antibody (antibody, V domains shown)
VH: QVQLVQSGAEVKKPGASVKVSCKASGFNIKDYYIHWVRQAPGQGLELIGWIDPESGDTNYAQKFQVKATMTRDTSISTAYMELSRLRSDDTAVYYCNDGSGYWGQGTTVTVSS
VL: DVVMTQSPLSLPVTLGQPASISCKSSQSLLDSDGETYLNWLQQRPGQSPRRLISLVSKLDSGVPDRFSGSGSGTDFTLKISRVEAEDVGVYYCWQGTHFPYTFGQGTKLEIK
notes: it was detected with anti-human IgG in ELISA; also called h2P2; humanised 2P2
A word on the Kd: it is the constant that tells how readily two partners part at equilibrium. A high value points to lower affinity. Broadly, the koff is the rate constant with which the complex falls apart. In test [1], B1 came in with a Kd of 0.0305 nM and an off-rate (koff) of 0.00037 s⁻¹.

B2: monoclonal antibody 2P2 (antibody, V domains shown)
VH: EVQLQQSGADLVRSGASVKLSCTASGFNIKDYYIHWVKQRPEQGLELIGWIDPESGDTEYAPKFQVKATMTADTSSNTAYLQLSSLTSEDTAVYYCNDGSGYWGQGTTLTVSS
VL: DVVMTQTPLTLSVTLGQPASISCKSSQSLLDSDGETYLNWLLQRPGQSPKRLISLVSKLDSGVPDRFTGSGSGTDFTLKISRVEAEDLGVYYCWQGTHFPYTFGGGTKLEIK
notes: Mouse monoclonal antibody; it was detected with anti-mouse IgG in ELISA; also called mAb 2P2; m2P2
Turning to B2, the binding result in [2] was “no binding”; in [4] it was “binds”; in [6], “no binding”; in [7], “no binding”; in test [8], “binds”; in test [9] it was “binds”. In addition, the “bioactivity of human IL-21 (proliferation of Ba/F3-hIL-21 R cells, [3H]-thymidine incorporation)” value in [3] was over 10 fold. Also, in [3], the “hIL-21 mediated human B cell proliferation (CFSE dilution, flow cytometry)” value was about 20 fold. For the same molecule, the “hIL-21 mediated human CD8 T cell activation (granzyme B/perforin double positive cells)” value in [3] is over 10 fold. Also, the figures for the Kd in test [5] and in [1] were 3.33 nM and 0.0201 nM, respectively. Moreover, the koff in test [1] was determined as 0.000512 s⁻¹.
